# Experimental data: patent US20040261142A1
# Target: mutant pp60c-Src tyrosine kinase (SRC 531 mutant, truncated c-Src) (human) (UniProt P12931)
# Test: cell-based or functional assay
substance,measurement,value
peptide Ala-Glu-Glu-Glu-Ile-Tyr-Gly-Glu-Phe-Glu-Ala-Lys-Lys-Lys-Lys,K50% (competitive inhibition of enolase phosphorylation),5 µM
same,"Km (kinase reaction, 32P incorporation into peptide, phosphocellulose paper)",2 µM
same,"Vmax (kinase reaction, 32P incorporation into peptide, phosphocellulose paper)",0.9 µM/mg/min
